T1: Flag-PTHR1-YFP (UniProt Q03431 27-593)
T1 sequence (looked up): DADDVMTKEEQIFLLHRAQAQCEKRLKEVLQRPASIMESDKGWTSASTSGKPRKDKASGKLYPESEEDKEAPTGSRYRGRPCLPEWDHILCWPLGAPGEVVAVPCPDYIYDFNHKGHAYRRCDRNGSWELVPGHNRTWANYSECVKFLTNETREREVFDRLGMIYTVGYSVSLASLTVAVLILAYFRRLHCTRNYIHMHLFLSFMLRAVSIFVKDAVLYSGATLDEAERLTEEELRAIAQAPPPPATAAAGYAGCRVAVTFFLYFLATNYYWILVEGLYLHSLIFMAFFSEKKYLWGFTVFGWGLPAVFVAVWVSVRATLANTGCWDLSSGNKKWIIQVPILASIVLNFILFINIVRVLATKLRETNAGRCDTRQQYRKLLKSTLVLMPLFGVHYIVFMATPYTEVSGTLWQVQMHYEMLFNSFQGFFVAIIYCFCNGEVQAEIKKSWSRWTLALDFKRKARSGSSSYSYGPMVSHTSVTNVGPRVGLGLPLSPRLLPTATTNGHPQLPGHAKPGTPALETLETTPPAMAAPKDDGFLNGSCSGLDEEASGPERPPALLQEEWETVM

T2: PTHR1 on CHO-K1/Ga15/PTHR1 cells (UniProt Q03431 27-593, limits assumed)
T2 sequence (looked up): T1 sequence (looked up)


Key:
Assay in all cases: cell-based or functional assay
[1] = biological target: Flag-PTHR1-YFP (parathyroid hormone receptor 1) expressed in transfected HEK293T cells (human) (UniProt Q03431)
Flag-PTHR1-YFP = biological target: T1, Flag-PTHR1-YFP
[2] = biological target: T2, PTHR1 on CHO-K1/Ga15/PTHR1 cells

Row | Molecule | arrestin 1, plate 25: -log10EC50 [1] | arrestin 1, plate 25: Emax [1] | arrestin 2, plate 26: -log10EC50 [1] | arrestin 2, plate 26: Emax [1] | arrestin 2 recruitment (BRET): -log10EC50 (Flag-PTHR1-YFP) | arrestin 2 recruitment (BRET): Emax (Flag-PTHR1-YFP) | cAMP accumulation (HTRF): -log10EC50 [2] | cAMP accumulation (HTRF): Emax [2]
1 | AVAEIQLMHQRAKWGLEIELLKLLLSLLKEYI [R2-45] |  |  |  |  | -5.76 -log10EC50 (as headed) | 16.1 | -11.1 -log10EC50 (as headed) | 729%
2 | AVAEIQLMHQRAKWELQEIGIAITLRLLARYI [R2-43] |  |  |  |  | -8.03 -log10EC50 (as headed) | 7.45 | -10.5 -log10EC50 (as headed) | 309%
3 | AVAEIQLMHQRAKWKLELELKAFLDQILKDVL [R2-36] |  |  |  |  | -8.7 -log10EC50 (as headed) | 7.53 | -8.32 -log10EC50 (as headed) | 99%
4 | AVAEIQLMHQRAKWDLLIELVKLLHELLKEYI [R2-40] |  |  |  |  | -5.85 -log10EC50 (as headed) | 13.9 | -11.2 -log10EC50 (as headed) | 95.1%
5 | AVAEIQLMHQRAKWSLREELEKLLKELLKEYI [R2-44] |  |  |  |  | -8.46 -log10EC50 (as headed) | 7.63 | -10.4 -log10EC50 (as headed) | 106%
6 | AVAEIQLMHQRAKWEIQEIGIKITLELLKEYI [R2-37] |  |  |  |  | -5.86 -log10EC50 (as headed) | 17 | -9.09 -log10EC50 (as headed) | 96.4%
7 | AVAEIQLMHQRAKWAIQEIGIKITRELLERYL [R2-42] |  |  |  |  | -8.37 -log10EC50 (as headed) | 7.53 | -6.54 -log10EC50 (as headed) | 97.6%

More lines, now with the values ahead:

Row | arrestin 1, plate 25: -log10EC50 [1] | arrestin 1, plate 25: Emax [1] | arrestin 2, plate 26: -log10EC50 [1] | arrestin 2, plate 26: Emax [1] | arrestin 2 recruitment (BRET): -log10EC50 (Flag-PTHR1-YFP) | arrestin 2 recruitment (BRET): Emax (Flag-PTHR1-YFP) | cAMP accumulation (HTRF): -log10EC50 [2] | cAMP accumulation (HTRF): Emax [2] | Molecule
8 | -6.98 -log10EC50 | 7.68 | -7.33 -log10EC50 | 8.04 |  |  |  |  | PTH 7-36 antago (peptide)
9 |  |  |  |  | -10.5 -log10EC50 (as headed) | 6.45 | -6.24 -log10EC50 (as headed) | 99.8% | GVAMLQIMHDLAKIKQELELKDSMKKILEDVL [R2-50]
10 |  |  |  |  | -5.77 -log10EC50 (as headed) | 15.2 | -9.23 -log10EC50 (as headed) | 102% | AVAEIQLMHQRAKWDVLIELAKLLAELLRRYH [R2-47]
11 |  |  |  |  | -15.2 -log10EC50 (as headed) | 6.42 | -7.19 -log10EC50 (as headed) | 98.8% | AVAEIQLMHQRAKWKILEELLKILIDLLKQYI [R2-48]

From patent publication US20220298217A1 (FLAGSHIP PIONEERING INNOVATIONS VI, published 2022)
